Common to all, as to assay: cell-based or functional assay
Test [1] has as its target T1, IL-18 receptor (IL-18Rα and IL-18Rβ) (UniProt Q13478 19-541; O95256 20-599, limits assumed).
T1 sequence (looked up) 1: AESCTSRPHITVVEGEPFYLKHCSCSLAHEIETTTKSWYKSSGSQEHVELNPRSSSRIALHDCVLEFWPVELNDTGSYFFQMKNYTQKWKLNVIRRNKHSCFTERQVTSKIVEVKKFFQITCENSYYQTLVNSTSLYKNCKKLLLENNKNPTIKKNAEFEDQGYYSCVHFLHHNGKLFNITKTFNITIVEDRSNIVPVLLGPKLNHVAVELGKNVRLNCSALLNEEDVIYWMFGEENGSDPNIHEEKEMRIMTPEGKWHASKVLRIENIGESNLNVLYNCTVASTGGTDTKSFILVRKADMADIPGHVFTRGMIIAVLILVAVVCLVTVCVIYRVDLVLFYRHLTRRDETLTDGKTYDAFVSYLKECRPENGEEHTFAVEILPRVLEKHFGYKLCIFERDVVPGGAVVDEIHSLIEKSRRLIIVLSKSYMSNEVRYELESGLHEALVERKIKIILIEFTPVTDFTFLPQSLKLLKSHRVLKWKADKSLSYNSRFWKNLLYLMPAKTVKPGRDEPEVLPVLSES
T1 sequence (looked up) 2: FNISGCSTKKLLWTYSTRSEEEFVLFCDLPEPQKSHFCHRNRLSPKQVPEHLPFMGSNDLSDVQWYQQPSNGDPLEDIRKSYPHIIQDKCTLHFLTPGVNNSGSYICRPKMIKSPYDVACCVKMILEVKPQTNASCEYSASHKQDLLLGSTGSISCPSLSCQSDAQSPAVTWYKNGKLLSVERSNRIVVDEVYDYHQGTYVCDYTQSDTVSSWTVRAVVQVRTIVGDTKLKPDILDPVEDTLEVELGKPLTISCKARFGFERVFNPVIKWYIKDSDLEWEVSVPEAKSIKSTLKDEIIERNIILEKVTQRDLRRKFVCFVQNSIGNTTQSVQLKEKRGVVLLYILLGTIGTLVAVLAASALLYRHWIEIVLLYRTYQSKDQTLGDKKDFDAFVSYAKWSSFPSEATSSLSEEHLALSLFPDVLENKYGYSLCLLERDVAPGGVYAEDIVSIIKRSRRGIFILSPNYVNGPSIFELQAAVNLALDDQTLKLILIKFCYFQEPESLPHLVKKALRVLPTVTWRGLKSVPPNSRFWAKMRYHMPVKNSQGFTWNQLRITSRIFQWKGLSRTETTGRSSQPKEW

The target of test [2] is T2, interleukin 18 binding protein (IL-18BP) (UniProt O95998 31-194).
T2 sequence (looked up): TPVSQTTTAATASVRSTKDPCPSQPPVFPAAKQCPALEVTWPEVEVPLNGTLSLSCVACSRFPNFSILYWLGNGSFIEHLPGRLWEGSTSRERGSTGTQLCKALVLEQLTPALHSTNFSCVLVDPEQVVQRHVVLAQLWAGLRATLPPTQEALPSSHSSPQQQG

In test [3] the target is T3, human IL-18 binding protein (IL-18BP) (human, UniProt O95998 31-194).
T3 sequence (looked up): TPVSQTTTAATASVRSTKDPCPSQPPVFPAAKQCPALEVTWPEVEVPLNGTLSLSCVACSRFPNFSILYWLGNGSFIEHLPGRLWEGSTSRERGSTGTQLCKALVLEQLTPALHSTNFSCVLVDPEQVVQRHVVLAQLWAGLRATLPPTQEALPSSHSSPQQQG

Test [4] addresses T4, IL-18 receptors on HEK-Blue IL-18 reporter cells (InvivoGen) (UniProt Q13478 19-541; O95256 20-599).
T4 sequence (looked up) 1: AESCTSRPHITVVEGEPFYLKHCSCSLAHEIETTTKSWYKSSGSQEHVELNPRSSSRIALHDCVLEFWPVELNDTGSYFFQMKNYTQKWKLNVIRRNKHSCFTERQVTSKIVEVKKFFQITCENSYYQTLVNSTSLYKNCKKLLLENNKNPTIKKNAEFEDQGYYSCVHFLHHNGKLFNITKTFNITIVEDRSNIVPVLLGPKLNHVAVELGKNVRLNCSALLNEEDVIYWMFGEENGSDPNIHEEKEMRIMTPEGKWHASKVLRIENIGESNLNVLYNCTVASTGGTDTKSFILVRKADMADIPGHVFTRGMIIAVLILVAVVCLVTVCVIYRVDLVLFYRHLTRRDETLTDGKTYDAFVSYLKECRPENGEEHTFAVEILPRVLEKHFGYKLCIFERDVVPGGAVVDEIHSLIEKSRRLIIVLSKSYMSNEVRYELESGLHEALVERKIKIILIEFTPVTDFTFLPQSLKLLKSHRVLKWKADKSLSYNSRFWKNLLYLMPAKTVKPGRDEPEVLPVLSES
T4 sequence (looked up) 2: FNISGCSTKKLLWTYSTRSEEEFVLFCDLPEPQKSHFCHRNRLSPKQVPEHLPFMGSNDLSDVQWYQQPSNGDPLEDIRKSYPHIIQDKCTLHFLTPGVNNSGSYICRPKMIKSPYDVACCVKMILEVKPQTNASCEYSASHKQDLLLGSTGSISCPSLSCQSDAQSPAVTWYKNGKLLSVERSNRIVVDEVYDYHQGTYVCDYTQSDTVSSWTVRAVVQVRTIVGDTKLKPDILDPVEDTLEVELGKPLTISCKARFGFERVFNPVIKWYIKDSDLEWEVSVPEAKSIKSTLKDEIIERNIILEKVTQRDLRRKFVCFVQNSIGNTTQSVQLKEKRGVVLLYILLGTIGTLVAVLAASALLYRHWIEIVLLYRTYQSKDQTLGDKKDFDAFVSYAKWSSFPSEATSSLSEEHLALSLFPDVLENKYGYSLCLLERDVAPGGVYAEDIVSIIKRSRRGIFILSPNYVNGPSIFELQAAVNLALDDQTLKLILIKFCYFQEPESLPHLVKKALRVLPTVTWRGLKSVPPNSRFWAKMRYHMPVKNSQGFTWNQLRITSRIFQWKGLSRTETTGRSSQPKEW

B1: IL-18 variant G3D, E6Q, R27S, K53R, D54A, S55R, T63S, N91Q (ligand)
chain: YFDKLQSKLSVIRNLNDQVLFIDQGNSPLFEDMTDSDMRDNAPRTIFIISMYRARQPRGMAVSISVKSEKISTLSSENKIISFKEMNPPDQIKDTKSDIIFFQRSVPGHDNKMQFESSSYEGYFLASEKERDLFKLILKKEDELGDRSIMFTVQNED
As for B1, the “EC50 (pM) - BP, HEK-blue re-screening” value in test [1] came to 4.22 pM. In addition, in test [2], the “EC50 (pM) + 100 nM BP, HEK-blue re-screening” value (shortened to “EC50 (pM) + 100 nM BP”) came out at 25.7 pM and the “Ratio (HEK-blue EC50, + 100 nM BP against - BP)” value (“Ratio” for short) was found to be 6.1.

B2: IL-18 variant G3L, E6Q, D54Y, S55P, T63S, N91S, R104Q (ligand)
chain: YFLKLQSKLSVIRNLNDQVLFIDQGNRPLFEDMTDSDMRDNAPRTIFIISMYKYPQPRGMAVSISVKSEKISTLSSENKIISFKEMNPPDSIKDTKSDIIFFQQSVPGHDNKMQFESSSYEGYFLASEKERDLFKLILKKEDELGDRSIMFTVQNED
As to B2, the “EC50 (pM) - BP, HEK-blue re-screening” value in test [1] turned out to be 1.35 pM. Further, in test [2], the “EC50 (pM) + 100 nM BP” value was 54.7 pM and the “Ratio” value worked out at 40.5.

B3: IL-18 variant G3E, E6H, R27S, D54A, S55T, T63S, N91F, R104S (ligand)
chain: YFEKLHSKLSVIRNLNDQVLFIDQGNSPLFEDMTDSDMRDNAPRTIFIISMYKATQPRGMAVSISVKSEKISTLSSENKIISFKEMNPPDFIKDTKSDIIFFQSSVPGHDNKMQFESSSYEGYFLASEKERDLFKLILKKEDELGDRSIMFTVQNED
For the molecule B3, in test [1], the “EC50 (pM) - BP, HEK-blue re-screening” value was determined as 0.34 pM. For the same molecule, in test [2], the “EC50 (pM) + 100 nM BP” value worked out at 3.01 pM and the “Ratio” value is 8.9.

B4: IL-18 variant G3E, E6G, N91M, R104A (ligand)
chain: YFEKLGSKLSVIRNLNDQVLFIDQGNRPLFEDMTDSDMRDNAPRTIFIISMYKDSQPRGMAVTISVKSEKISTLSSENKIISFKEMNPPDMIKDTKSDIIFFQASVPGHDNKMQFESSSYEGYFLASEKERDLFKLILKKEDELGDRSIMFTVQNED
Turning to B4, the “EC50 (pM) - BP, HEK-blue re-screening” value in test [1] turned out to be 0.17 pM. In test [2], the “EC50 (pM) + 100 nM BP” value is 3.49 pM and the “Ratio” value is 20.5.

B5: IL-18 variant M60K (ligand)
chain: YFGKLESKLSVIRNLNDQVLFIDQGNRPLFEDMTDSDMRDNAPRTIFIISMYKDSQPRGKAVTISVKSEKISTLSSENKIISFKEMNPPDNIKDTKSDIIFFQRSVPGHDNKMQFESSSYEGYFLASEKERDLFKLILKKEDELGDRSIMFTVQNED
As for B5, in test [3], the “Fold Change (BP/NO BP), 50 nM BP” value worked out at 1.64 fold; the “Fold Change (BP/NO BP), 300 nM BP” value was determined as 9.67 fold; the “HEK-Blue EC50 pM, +50 nM BP” value was 4.77 pM; the “HEK-blue EC50 (pM) + 300 nM BP” value turned out to be 38.3 pM. Further, in test [4], the “HEK-Blue EC50 pM, NO BP (50 nM BP run)” value was determined as 2.9 pM and the “HEK-Blue EC50 pM, NO BP (300 nM BP run)” value was determined as 3.96 pM.

B6: IL-18 variant G3Y, E6N, N91Y, R104S (ligand)
chain: YFYKLNSKLSVIRNLNDQVLFIDQGNRPLFEDMTDSDMRDNAPRTIFIISMYKDSQPRGMAVTISVKSEKISTLSSENKIISFKEMNPPDYIKDTKSDIIFFQSSVPGHDNKMQFESSSYEGYFLASEKERDLFKLILKKEDELGDRSIMFTVQNED
In the case of B6, the “EC50 (pM) - BP, HEK-blue re-screening” value in test [1] amounted to 0.09 pM. Besides, in test [2], the “EC50 (pM) + 100 nM BP” value is 2.89 pM and the “Ratio” value stood at 32.1.

B7: IL-18 variant G3L, E6Q, T63S, N91L, R104T (ligand)
chain: YFLKLQSKLSVIRNLNDQVLFIDQGNRPLFEDMTDSDMRDNAPRTIFIISMYKDSQPRGMAVSISVKSEKISTLSSENKIISFKEMNPPDLIKDTKSDIIFFQTSVPGHDNKMQFESSSYEGYFLASEKERDLFKLILKKEDELGDRSIMFTVQNED
As to B7, the “EC50 (pM) - BP, HEK-blue re-screening” value in test [1] turned out to be 0.03 pM. Besides, in test [2], the “EC50 (pM) + 100 nM BP” value is 1.67 pM and the “Ratio” value turned out to be 55.7.
